Patent US20180264123A1 (UNIVERSITY OF MIYAZAKI, published 2018)
Bridge positions count the residues as written; N and C are the ends. Xyl‑4‑branched CH3O‑PEG (40k)‑CH2 = xylose skeleton-containing 4-branched CH3O-PEG (40k)-CH2 (alkylamine-linked PEG, 40k)

B1: Xyl-4-branched CH3O-PEG (40k)-CH2-^αNH-(h.AM (1-52)) (peptide)
peptide: {Xyl‑4‑branched CH3O‑PEG (40k)‑CH2}-YRQSMNNFQGLRSFGCRFGTCTVQKLAHQIYQFTDKDKDNVAPRSKISPQGY-NH2
modifications: disulfide 16-21
B2: CH3O-PEG (10k)-(CH2)2-CH2-^αNH-(h.AM (1-52)) (peptide)
peptide: {CH3O‑PEG (10k)‑(CH2)2‑CH2‑}-YRQSMNNFQGLRSFGCRFGTCTVQKLAHQIYQFTDKDKDNVAPRSKISPQGY-NH2
modifications: disulfide 16-21
B3: CH3O-PEG (20k)-(CH2)5-CO-^αNH-(h.AM (1-52)) (peptide)
peptide: {CH3O‑PEG (20k)‑(CH2)5‑CO‑}-YRQSMNNFQGLRSFGCRFGTCTVQKLAHQIYQFTDKDKDNVAPRSKISPQGY-NH2
modifications: disulfide 16-21
B4: CH3O-PEG (20k)-CO-^αNH-(h.AM (1-52)) (peptide)
peptide: {CH3O‑PEG (20k)‑CO‑}-YRQSMNNFQGLRSFGCRFGTCTVQKLAHQIYQFTDKDKDNVAPRSKISPQGY-NH2
modifications: disulfide 16-21
B5: GL-4-branched CH3O-PEG (40k)-CO-^αNH-(h.AM (1-52)) (peptide)
peptide: {GL‑4‑branched CH3O‑PEG (40k)‑CO‑}-YRQSMNNFQGLRSFGCRFGTCTVQKLAHQIYQFTDKDKDNVAPRSKISPQGY-NH2
modifications: disulfide 16-21
B6: GL-2-branched CH3O-PEG (60k)-CH2-^αNH-(h.AM (1-52)) (peptide)
peptide: {GL‑2‑branched CH3O‑PEG (60k)‑CH2‑}-YRQSMNNFQGLRSFGCRFGTCTVQKLAHQIYQFTDKDKDNVAPRSKISPQGY-NH2
modifications: disulfide 16-21
B7: Lys-2-branched CH3O-PEG (40k)-CH2-^αNH-(h.AM (1-52)) (peptide)
peptide: YRQSMNNFQGLRSFGCRFGTCTVQKLAHQIYQFTDKDKDNVAPRSKISPQGY
modifications: N-terminal α-amino group alkylamine-linked to lysine skeleton-containing 2-branched CH3O-PEG (40k)-CH2-; Cys16-Cys21 disulfide; C-terminal amide
B8: GL-2-branched CH3O-PEG (20k)-CO-^αNH-(h.AM (1-52)) (peptide)
peptide: {GL‑2‑branched CH3O‑PEG (20k)‑CO‑}-YRQSMNNFQGLRSFGCRFGTCTVQKLAHQIYQFTDKDKDNVAPRSKISPQGY-NH2
modifications: disulfide 16-21
B9: GL-2-branched CH3O-PEG (40k)-CH2-^αNH-(h.AM (1-52)) (peptide)
peptide: {GL‑2‑branched CH3O‑PEG (40k)‑CH2‑}-YRQSMNNFQGLRSFGCRFGTCTVQKLAHQIYQFTDKDKDNVAPRSKISPQGY-NH2
modifications: disulfide 16-21
B10: GL-2-branched CH3O-PEG (80k)-CH2-^αNH-(h.AM (1-52)) (peptide)
peptide: {GL‑2‑branched CH3O‑PEG (80k)‑CH2‑}-YRQSMNNFQGLRSFGCRFGTCTVQKLAHQIYQFTDKDKDNVAPRSKISPQGY-NH2
modifications: disulfide 16-21
B11: CH3O-PEG (5k)-(CH2)5-CO-^αNH-(h.AM (1-52)) (peptide)
peptide: {CH3O‑PEG (5k)‑(CH2)5‑CO‑}-YRQSMNNFQGLRSFGCRFGTCTVQKLAHQIYQFTDKDKDNVAPRSKISPQGY-NH2
modifications: disulfide 16-21
B12: CH3O-PEG (30k)-(CH2)2-CH2-^αNH-(h.AM (1-52)) (peptide)
peptide: {CH3O‑PEG (30k)‑(CH2)2‑CH2‑}-YRQSMNNFQGLRSFGCRFGTCTVQKLAHQIYQFTDKDKDNVAPRSKISPQGY-NH2
modifications: disulfide 16-21
B13: CH3O-PEG (20k)-(CH2)2-CH2-^αNH-(h.AM (1-52)) (peptide)
peptide: {CH3O‑PEG (20k)‑(CH2)2‑CH2‑}-YRQSMNNFQGLRSFGCRFGTCTVQKLAHQIYQFTDKDKDNVAPRSKISPQGY-NH2
modifications: disulfide 16-21
B14: CH3O-PEG (40k)-(CH2)2-CH2-^αNH-(h.AM (1-52)) (peptide)
peptide: {CH3O‑PEG (40k)‑(CH2)2‑CH2‑}-YRQSMNNFQGLRSFGCRFGTCTVQKLAHQIYQFTDKDKDNVAPRSKISPQGY-NH2
modifications: disulfide 16-21
B15: GL-2-branched CH3O-PEG (40k)-CO-^αNH-(h.AM (1-52)) (peptide)
peptide: {GL‑2‑branched CH3O‑PEG (40k)‑CO‑}-YRQSMNNFQGLRSFGCRFGTCTVQKLAHQIYQFTDKDKDNVAPRSKISPQGY-NH2
modifications: disulfide 16-21
B16: GL-3-branched CH3O-PEG (50k)-CH2-^αNH-(h.AM (1-52)) (peptide)
peptide: {GL‑3‑branched CH3O‑PEG (50k)‑CH2‑}-YRQSMNNFQGLRSFGCRFGTCTVQKLAHQIYQFTDKDKDNVAPRSKISPQGY-NH2
modifications: disulfide 16-21
B17: GL-4-branched CH3O-PEG (40k)-CH2-^αNH-(h.AM (1-52)) (peptide)
peptide: {GL‑4‑branched CH3O‑PEG (40k)‑CH2‑}-YRQSMNNFQGLRSFGCRFGTCTVQKLAHQIYQFTDKDKDNVAPRSKISPQGY-NH2
modifications: disulfide 16-21

What follows are binders tested against AM receptor (assay: cell-based or functional assay).
In the case of B1, the “Intracellular cAMP concentration-increasing effect (%) vs h.AM (1-52); 10^-8 mol/L, HEK293 cells” value is reported as 81%. In the case of B2, the “Intracellular cAMP concentration-increasing effect (%) vs h.AM (1-52); 10^-8 mol/L, HEK293 cells” value is reported as 101%. B3 was tested, and the “Intracellular cAMP concentration-increasing effect (%) vs h.AM (1-52); 10^-8 mol/L, HEK293 cells” value was 67%. With B4 the “Intracellular cAMP concentration-increasing effect (%) vs h.AM (1-52); 10^-8 mol/L, HEK293 cells” value was 100%. In the case of {GL‑2‑branched CH3O‑PEG (40k)‑CH2‑}-NNFQGLRSFGCRFGTCTVQKLAHQIYQFTDKDKDNVAPRSKISPQGY-NH2 (disulfide 11-16) [GL-2-branched CH3O-PEG (40k)-CH2-^αNH-(h.AM (6-52))], the “Intracellular cAMP concentration-increasing effect (%) vs h.AM (1-52); 10^-8 mol/L, HEK293 cells” value is reported as 77%. In the case of B5, the “Intracellular cAMP concentration-increasing effect (%) vs h.AM (1-52); 10^-8 mol/L, HEK293 cells” value is reported as 85%. In the case of {GL‑2‑branched CH3O‑PEG (20k)‑CO‑}-CRFGTCTVQKLAHQIYQFTDKDKDNVAPRSKISPQGY-NH2 (disulfide 1-6) [GL-2-branched CH3O-PEG (20k)-CO-^αNH-(h.AM (16-52))], the “Intracellular cAMP concentration-increasing effect (%) vs h.AM (1-52); 10^-8 mol/L, HEK293 cells” value is reported as 96%. For {CH3O‑PEG (20k)‑(CH2)2‑CH2‑}-LRSFGCRFGTCTVQKLAHQIYQFTDKDKDNVAPRSKISPQGY-NH2 (disulfide 6-11) [CH3O-PEG (20k)-(CH2)2-CH2-^αNH-(h.AM (11-52))], the “Intracellular cAMP concentration-increasing effect (%) vs h.AM (1-52); 10^-8 mol/L, HEK293 cells” value was 97%. For {CH3O‑PEG (20k)‑(CH2)2‑CH2‑}-CRFGTCTVQKLAHQIYQFTDKDKDNVAPRSKISPQGY-NH2 (disulfide 1-6) [CH3O-PEG (20k)-(CH2)2-CH2-^αNH-(h.AM (16-52))], the “Intracellular cAMP concentration-increasing effect (%) vs h.AM (1-52); 10^-8 mol/L, HEK293 cells” value was 97%. For {CH3O‑PEG (5k)‑(CH2)2‑CH2‑}-NNFQGLRSFGCRFGTCTVQKLAHQIYQFTDKDKDNVAPRSKISPQGY-NH2 (disulfide 11-16) [CH3O-PEG (5k)-(CH2)2-CH2-^αNH-(h.AM (6-52))], the “Intracellular cAMP concentration-increasing effect (%) vs h.AM (1-52); 10^-8 mol/L, HEK293 cells” value was 90%. With B6 the “Intracellular cAMP concentration-increasing effect (%) vs h.AM (1-52); 10^-8 mol/L, HEK293 cells” value was 99%. In the case of B7, the “Intracellular cAMP concentration-increasing effect (%) vs h.AM (1-52); 10^-8 mol/L, HEK293 cells” value is reported as 102%. For B8, the “Intracellular cAMP concentration-increasing effect (%) vs h.AM (1-52); 10^-8 mol/L, HEK293 cells” value was 99%. {GL‑2‑branched CH3O‑PEG (20k)‑CO‑}-LRSFGCRFGTCTVQKLAHQIYQFTDKDKDNVAPRSKISPQGY-NH2 (disulfide 6-11) [GL-2-branched CH3O-PEG (20k)-CO-^αNH-(h.AM (11-52))] was tested, and the “Intracellular cAMP concentration-increasing effect (%) vs h.AM (1-52); 10^-8 mol/L, HEK293 cells” value was 104%. {GL‑2‑branched CH3O‑PEG (20k)‑CO‑}-NNFQGLRSFGCRFGTCTVQKLAHQIYQFTDKDKDNVAPRSKISPQGY-NH2 (disulfide 11-16) [GL-2-branched CH3O-PEG (20k)-CO-^αNH-(h.AM (6-52))] was tested, and the “Intracellular cAMP concentration-increasing effect (%) vs h.AM (1-52); 10^-8 mol/L, HEK293 cells” value was 99%. B9 was tested, and the “Intracellular cAMP concentration-increasing effect (%) vs h.AM (1-52); 10^-8 mol/L, HEK293 cells” value was 96%. {CH3O‑PEG (5k)‑(CH2)2‑CH2‑}-LRSFGCRFGTCTVQKLAHQIYQFTDKDKDNVAPRSKISPQGY-NH2 (disulfide 6-11) [CH3O-PEG (5k)-(CH2)2-CH2-^αNH-(h.AM (11-52))] was tested, and the “Intracellular cAMP concentration-increasing effect (%) vs h.AM (1-52); 10^-8 mol/L, HEK293 cells” value was 80%. For B10, the “Intracellular cAMP concentration-increasing effect (%) vs h.AM (1-52); 10^-8 mol/L, HEK293 cells” value was 94%. With B11 the “Intracellular cAMP concentration-increasing effect (%) vs h.AM (1-52); 10^-8 mol/L, HEK293 cells” value was 81%. B12 was tested, and the “Intracellular cAMP concentration-increasing effect (%) vs h.AM (1-52); 10^-8 mol/L, HEK293 cells” value was 100%. For B13, the “Intracellular cAMP concentration-increasing effect (%) vs h.AM (1-52); 10^-8 mol/L, HEK293 cells” value was 100%. In the case of {GL‑4‑branched CH3O‑PEG (40k)‑CO‑}-NNFQGLRSFGCRFGTCTVQKLAHQIYQFTDKDKDNVAPRSKISPQGY-NH2 (disulfide 11-16) [GL-4-branched CH3O-PEG (40k)-CO-^αNH-(h.AM (6-52))], the “Intracellular cAMP concentration-increasing effect (%) vs h.AM (1-52); 10^-8 mol/L, HEK293 cells” value is reported as 83%. For B14, the “Intracellular cAMP concentration-increasing effect (%) vs h.AM (1-52); 10^-8 mol/L, HEK293 cells” value was 101%. In the case of B15, the “Intracellular cAMP concentration-increasing effect (%) vs h.AM (1-52); 10^-8 mol/L, HEK293 cells” value is reported as 87%. {GL‑2‑branched CH3O‑PEG (40k)‑CO‑}-CRFGTCTVQKLAHQIYQFTDKDKDNVAPRSKISPQGY-NH2 (disulfide 1-6) [GL-2-branched CH3O-PEG (40k)-CO-^αNH-(h.AM (16-52))] was tested, and the “Intracellular cAMP concentration-increasing effect (%) vs h.AM (1-52); 10^-8 mol/L, HEK293 cells” value was 61%. With B16 the “Intracellular cAMP concentration-increasing effect (%) vs h.AM (1-52); 10^-8 mol/L, HEK293 cells” value was 80%. {CH3O‑PEG (5k)‑(CH2)2‑CH2‑}-CRFGTCTVQKLAHQIYQFTDKDKDNVAPRSKISPQGY-NH2 (disulfide 1-6) [CH3O-PEG (5k)-(CH2)2-CH2-^αNH-(h.AM (16-52))] was tested, and the “Intracellular cAMP concentration-increasing effect (%) vs h.AM (1-52); 10^-8 mol/L, HEK293 cells” value was 39%. For B17, the “Intracellular cAMP concentration-increasing effect (%) vs h.AM (1-52); 10^-8 mol/L, HEK293 cells” value was 95%.
